Source: EP4714976A1

T1: FGFR4 (acro) (UniProt P22455)
T1 sequence (looked up): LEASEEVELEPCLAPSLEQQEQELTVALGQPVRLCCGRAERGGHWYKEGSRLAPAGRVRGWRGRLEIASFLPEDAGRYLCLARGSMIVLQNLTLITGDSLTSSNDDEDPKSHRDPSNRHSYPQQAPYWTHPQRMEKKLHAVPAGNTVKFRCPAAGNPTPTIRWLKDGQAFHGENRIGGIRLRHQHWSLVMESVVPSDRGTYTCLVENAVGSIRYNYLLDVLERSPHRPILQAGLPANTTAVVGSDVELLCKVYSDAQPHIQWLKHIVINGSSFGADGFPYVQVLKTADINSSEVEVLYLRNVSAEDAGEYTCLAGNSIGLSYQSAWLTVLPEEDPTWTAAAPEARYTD

B1: 3H9 scFv displayed on phage (scFv)
scFv: EIQLQQSGAELVKPGASVKMSCKASGYTFSFYNMHWVKRTPGQGLEWIGLIYPDNGDTSYNQKFKGKATLTADTSSSTAYMQLSSLTSEDSAVYYCARGGLDYWGQGTTLTVSSGGGGSGGGGSGGGGSDIVLTQSPASLSVSVGETVTITCRASENIYSNLAWYQQKQGKSPQLLVYAATNLADGVPSRFSGSGSGTQYSLKINSLQSEDFGSYYCQHFWGTPYTFGGGTKLELK
B2: 3G10 scFv-Fc (Fc fusion)
chain: EVQLQQSGPELVKPGASVKMSCKASGYTFATYNMHWVKQTTGQGLEWIGAIYPDNGDTFYNRKFKDKATLTADKSSTTAYMQLSSLTSEDSAVYYCARGDFAYWGQGTLVTVSAGGGGSGGGGSGGGGSDVLMTQSPASLSASVGETVTITCGASENIYGALNWYQRKQGKSPQLLIYGATNLADGMSSRFSGSGSGRQYSLKISSLHPDDVATYYCQNVLSTPYTFGGGTKLEMKESKYGPPCPPCPAPEAAGGPSVFLFPPKPKDTLMISRTPEVTCVVVDVSQEDPEVQFNWYVDGVEVHNAKTKPREEQFNSTYRVVSVLTVLHQDWLNGKEYKCKVSNKGLPSSIEKTISKAKGQPREPQVYTLPPSQEEMTKNQVSLTCLVKGFYPSDIAVEWESNGQPENNYKTTPPVLDSDGSFFLYSKLTVDKSRWQEGNVFSCSVMHEALHNHYTQKSLSLSLG
B3: 3D7 scFv-Fc (Fc fusion)
chain: QVQLQQSGAELVKPGASVKMSCKASGYTFSFYNMHWVKRTPGRGLEWIGLIYPDNGDTSYNQKFKGKATLTADTSSSTAYMQLSSLTSEDSAVYYCARGGLDYWGQGTSLTVSSGGGGSGGGGSGGGGSEIVLTQSPASLAVSLGQRATISCKASQSVDYDGDSYMNWYQQKPGQPPKLLIYGISNRFSGVPDRFSGSGSGTDFTLKISTIKPEDLGMYYCLQGTHQPYTFGGGTKLEIKESKYGPPCPPCPAPEAAGGPSVFLFPPKPKDTLMISRTPEVTCVVVDVSQEDPEVQFNWYVDGVEVHNAKTKPREEQFNSTYRVVSVLTVLHQDWLNGKEYKCKVSNKGLPSSIEKTISKAKGQPREPQVYTLPPSQEEMTKNQVSLTCLVKGFYPSDIAVEWESNGQPENNYKTTPPVLDSDGSFFLYSKLTVDKSRWQEGNVFSCSVMHEALHNHYTQKSLSLSLG
B4: 1A3 scFv-Fc (Fc fusion)
chain: QVQLQQPGAELVKPGASVKMSCKASGYTFASYNLHWVKQTPGQGLEWIGLIYPENGDTSYNQKFKGKATLTADKSSSTAYIQLSSLTSEDSAVYFCARGGFDYWGQGTTLTVSQGGGGSGGGGSGGGGSDIQMTQSPASLSASVGETVTITCGASENIYGALNWYQRKQGKSPQLLIYGATNLADGMSSRFSGSGSGRQYSLKISSLHPDDVATYYCQNVLSTPYTFGGGTKLEIKESKYGPPCPPCPAPEAAGGPSVFLFPPKPKDTLMISRTPEVTCVVVDVSQEDPEVQFNWYVDGVEVHNAKTKPREEQFNSTYRVVSVLTVLHQDWLNGKEYKCKVSNKGLPSSIEKTISKAKGQPREPQVYTLPPSQEEMTKNQVSLTCLVKGFYPSDIAVEWESNGQPENNYKTTPPVLDSDGSFFLYSKLTVDKSRWQEGNVFSCSVMHEALHNHYTQKSLSLSLG
B5: 3E3 scFv-Fc (Fc fusion)
chain: QVQLQQPGAVLVKPGASVRMSCKASGYTFPYYNVHWVKRTPGQGLEWIGLIYPDNGDTSYNQKFTGKATLTADTSSSTAYMQLSSLTSEDSAVYYCARGGLDYWGQGTTLTVSAGGGGSGGGGSGGGGSDVQITQSPASLSASVGETVTITCGASENIYGALNWYQRKQGKSPQLLIYGATNLADGMSSRFSGSGSGRQYSLKISSLHPDDVATYYCQNVLSTPYTFGGGTKLEIKESKYGPPCPPCPAPEAAGGPSVFLFPPKPKDTLMISRTPEVTCVVVDVSQEDPEVQFNWYVDGVEVHNAKTKPREEQFNSTYRVVSVLTVLHQDWLNGKEYKCKVSNKGLPSSIEKTISKAKGQPREPQVYTLPPSQEEMTKNQVSLTCLVKGFYPSDIAVEWESNGQPENNYKTTPPVLDSDGSFFLYSKLTVDKSRWQEGNVFSCSVMHEALHNHYTQKSLSLSLG
B6: 1G6 scFv-Fc (Fc fusion)
chain: EIQLQQSGAELVKPGASVKMSCKASGYTFRYYNMHWVKRTPGQGLEWIGLIYPDNGDTSYNQKFKGKATLTADTSSSTAYMQLSSLTSEDSAVYYCARGGLDYWGQGTSLTVSSGGGGSGGGGSGGGGSNIVMTQSHKFMSTSVGDRVSITCKASQDVNTDVAWYQQKPGQSPKLLIYSASYRYTGVPTRFTGSGSGTDFTFTISGVQAEDLADYYCQQHYNTPYTFGGGTKLELKESKYGPPCPPCPAPEAAGGPSVFLFPPKPKDTLMISRTPEVTCVVVDVSQEDPEVQFNWYVDGVEVHNAKTKPREEQFNSTYRVVSVLTVLHQDWLNGKEYKCKVSNKGLPSSIEKTISKAKGQPREPQVYTLPPSQEEMTKNQVSLTCLVKGFYPSDIAVEWESNGQPENNYKTTPPVLDSDGSFFLYSKLTVDKSRWQEGNVFSCSVMHEALHNHYTQKSLSLSLG

biological target: extracellular domain of FGFR2c protein (Example 1) (UniProt P21802); assay: phage ELISA
Sequence (P21802 22-377): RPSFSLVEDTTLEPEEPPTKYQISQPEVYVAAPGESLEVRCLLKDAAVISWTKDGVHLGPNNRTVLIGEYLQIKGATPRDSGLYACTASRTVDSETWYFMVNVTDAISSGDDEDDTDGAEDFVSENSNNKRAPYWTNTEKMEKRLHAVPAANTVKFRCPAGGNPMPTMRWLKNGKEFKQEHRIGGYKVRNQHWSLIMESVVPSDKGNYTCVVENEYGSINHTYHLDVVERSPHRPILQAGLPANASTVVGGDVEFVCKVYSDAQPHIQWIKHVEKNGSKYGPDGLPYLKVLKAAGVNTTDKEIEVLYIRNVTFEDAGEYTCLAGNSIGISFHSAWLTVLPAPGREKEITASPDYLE

Binder	OD (450 nm) value
B1	0.073

biological target: extracellular domain of the FGFR2b protein (NP_075259.4) (UniProt P21802); assay: phage ELISA
Sequence (P21802 other isoform, or with tags, fused parts or gaps): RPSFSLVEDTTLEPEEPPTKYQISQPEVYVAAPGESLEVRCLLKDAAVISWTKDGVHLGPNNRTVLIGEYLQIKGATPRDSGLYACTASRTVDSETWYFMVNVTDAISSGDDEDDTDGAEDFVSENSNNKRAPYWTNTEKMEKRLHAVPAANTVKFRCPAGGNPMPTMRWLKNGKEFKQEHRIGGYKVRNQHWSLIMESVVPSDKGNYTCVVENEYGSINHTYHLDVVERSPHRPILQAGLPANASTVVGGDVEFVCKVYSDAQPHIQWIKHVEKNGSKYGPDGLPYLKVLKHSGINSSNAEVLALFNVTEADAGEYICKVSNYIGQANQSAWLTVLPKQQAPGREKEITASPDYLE

Binder	OD (450 nm) value
B1	2.22

biological target: recombinant mouse FGFR2b (mouse) (UniProt P21803); assay: ELISA, antibody 1ug/mL
Sequence (P21803 22-377): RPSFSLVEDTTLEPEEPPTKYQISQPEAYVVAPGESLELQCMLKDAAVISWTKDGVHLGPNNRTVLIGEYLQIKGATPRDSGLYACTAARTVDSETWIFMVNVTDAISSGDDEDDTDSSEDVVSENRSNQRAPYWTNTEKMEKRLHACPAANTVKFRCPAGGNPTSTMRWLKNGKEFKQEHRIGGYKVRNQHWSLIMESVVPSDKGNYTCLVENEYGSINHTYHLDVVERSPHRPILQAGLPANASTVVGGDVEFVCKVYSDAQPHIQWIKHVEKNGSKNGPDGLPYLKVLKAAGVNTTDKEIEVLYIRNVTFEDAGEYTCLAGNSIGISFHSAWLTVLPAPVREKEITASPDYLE

Binder	OD (450 nm) value
B2	3
B3	2.48
B4	1.81
B5	3.06
B6	2.76

biological target: FGFR1 (acro) (UniProt P11362); assay: ELISA, antibody 10 µg/mL
Sequence (P11362 22-376): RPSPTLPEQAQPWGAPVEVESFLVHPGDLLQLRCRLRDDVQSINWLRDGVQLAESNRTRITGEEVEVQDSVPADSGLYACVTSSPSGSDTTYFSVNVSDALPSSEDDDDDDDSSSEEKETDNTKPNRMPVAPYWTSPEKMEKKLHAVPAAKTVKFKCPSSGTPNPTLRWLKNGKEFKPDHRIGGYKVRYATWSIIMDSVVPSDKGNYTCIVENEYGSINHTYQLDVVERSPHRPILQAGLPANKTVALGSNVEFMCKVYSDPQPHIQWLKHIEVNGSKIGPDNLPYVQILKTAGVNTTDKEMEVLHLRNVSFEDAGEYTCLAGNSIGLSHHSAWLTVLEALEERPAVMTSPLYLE

Binder	OD (450 nm) value
B2	0.083
B3	0.192
B4	0.143
B5	0.19
B6	0.217

biological target: FGFR2c (acro) (UniProt P21802); assay: ELISA, antibody 10 µg/mL
Sequence (P21802 22-377): as the sequence (P21802 22-377) above

Binder	OD (450 nm) value
B4	0.134
B5	0.199
B6	0.176

biological target: T1, FGFR4 (acro); assay: ELISA, antibody 10 µg/mL

Binder	OD (450 nm) value
B2	0.175
B3	0.256
B5	0.265
B6	0.232

biological target: recombinant mouse FGFR2b (mouse) (UniProt P21803); assay: BLI, antibody on AHC2 sensor

Binder	Kd [nM]	koff [s⁻¹]	kon [M⁻¹ s⁻¹]
B2	41.9	0.00195	46600
B3	81.7	0.00238	29100
B4	99.8	0.0054	54200
B5	52.7	0.00214	40500
B6	42.2	0.00128	30400
